Measurements reported in IntAct's records for PubMed 18086875.

Experiments:
fak2_human PTK2B [1] = target: fak2_human PTK2B (UniProt Q14289)
pak1_human PAK1 = pak1_human PAK1 (UniProt Q13153)
fak1_human PTK2 = fak1_human PTK2 (UniProt Q05397)
fak2_human PTK2B [2] = target: fak2_human PTK2B (UniProt Q14289); remark: listed apart in the source

Chain of fak2_human PTK2B (Q14289 whole entry, looked up): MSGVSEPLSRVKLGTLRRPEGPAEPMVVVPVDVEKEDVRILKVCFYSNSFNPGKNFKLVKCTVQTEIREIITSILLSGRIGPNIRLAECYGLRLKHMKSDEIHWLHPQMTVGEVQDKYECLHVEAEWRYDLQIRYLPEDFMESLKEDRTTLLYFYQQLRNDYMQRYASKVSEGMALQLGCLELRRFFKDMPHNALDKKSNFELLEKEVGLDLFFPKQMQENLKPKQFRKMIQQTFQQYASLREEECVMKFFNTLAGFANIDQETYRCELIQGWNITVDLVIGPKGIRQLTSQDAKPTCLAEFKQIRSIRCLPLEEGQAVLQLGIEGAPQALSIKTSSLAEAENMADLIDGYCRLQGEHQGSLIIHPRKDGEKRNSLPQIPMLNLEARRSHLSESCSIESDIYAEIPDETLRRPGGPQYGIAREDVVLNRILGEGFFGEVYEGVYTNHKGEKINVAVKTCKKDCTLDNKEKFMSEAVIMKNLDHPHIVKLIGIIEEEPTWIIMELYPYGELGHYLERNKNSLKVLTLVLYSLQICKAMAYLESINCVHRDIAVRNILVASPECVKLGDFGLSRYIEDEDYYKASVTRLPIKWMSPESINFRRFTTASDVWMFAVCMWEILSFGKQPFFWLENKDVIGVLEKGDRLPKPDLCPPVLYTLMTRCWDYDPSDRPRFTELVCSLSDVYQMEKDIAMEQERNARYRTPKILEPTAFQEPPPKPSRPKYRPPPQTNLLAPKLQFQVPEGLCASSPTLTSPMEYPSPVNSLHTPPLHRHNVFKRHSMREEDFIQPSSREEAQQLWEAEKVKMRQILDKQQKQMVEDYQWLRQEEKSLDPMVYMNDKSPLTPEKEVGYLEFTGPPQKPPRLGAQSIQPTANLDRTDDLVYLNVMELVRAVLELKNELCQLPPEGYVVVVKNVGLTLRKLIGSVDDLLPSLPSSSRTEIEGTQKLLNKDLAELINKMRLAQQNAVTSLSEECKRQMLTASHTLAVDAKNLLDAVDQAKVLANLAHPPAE
Chain of fak1_human PTK2 (Q05397 whole entry, looked up): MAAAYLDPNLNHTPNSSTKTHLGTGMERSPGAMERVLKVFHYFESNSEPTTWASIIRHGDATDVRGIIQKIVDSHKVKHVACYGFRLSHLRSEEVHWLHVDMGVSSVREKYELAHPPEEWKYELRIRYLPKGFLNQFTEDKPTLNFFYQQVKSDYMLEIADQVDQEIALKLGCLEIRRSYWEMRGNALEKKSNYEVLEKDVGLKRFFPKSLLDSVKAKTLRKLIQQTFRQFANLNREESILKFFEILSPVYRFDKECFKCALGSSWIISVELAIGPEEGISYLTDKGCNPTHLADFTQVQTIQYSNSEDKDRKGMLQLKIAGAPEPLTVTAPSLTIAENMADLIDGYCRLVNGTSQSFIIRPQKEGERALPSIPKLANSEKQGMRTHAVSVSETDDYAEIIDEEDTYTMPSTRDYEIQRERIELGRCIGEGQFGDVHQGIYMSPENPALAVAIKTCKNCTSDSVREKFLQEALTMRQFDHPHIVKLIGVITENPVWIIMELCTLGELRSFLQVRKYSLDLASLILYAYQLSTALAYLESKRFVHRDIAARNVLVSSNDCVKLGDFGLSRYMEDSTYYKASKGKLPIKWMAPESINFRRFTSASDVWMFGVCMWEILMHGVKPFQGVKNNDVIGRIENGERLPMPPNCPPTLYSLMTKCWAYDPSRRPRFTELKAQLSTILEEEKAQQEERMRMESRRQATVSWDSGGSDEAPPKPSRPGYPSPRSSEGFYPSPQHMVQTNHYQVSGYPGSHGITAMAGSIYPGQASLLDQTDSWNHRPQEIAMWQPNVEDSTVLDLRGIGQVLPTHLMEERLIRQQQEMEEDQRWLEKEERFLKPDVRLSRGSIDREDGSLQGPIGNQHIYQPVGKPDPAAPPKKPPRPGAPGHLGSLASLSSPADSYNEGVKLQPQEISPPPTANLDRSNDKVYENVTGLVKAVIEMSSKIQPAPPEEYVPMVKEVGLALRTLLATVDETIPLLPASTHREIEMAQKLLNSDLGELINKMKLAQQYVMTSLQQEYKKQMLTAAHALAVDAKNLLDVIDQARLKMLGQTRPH
Chain of Rho-related GTP-binding protein RhoU (Homo sapiens), Q7L0Q8 F86C (Q7L0Q8 whole entry F86C): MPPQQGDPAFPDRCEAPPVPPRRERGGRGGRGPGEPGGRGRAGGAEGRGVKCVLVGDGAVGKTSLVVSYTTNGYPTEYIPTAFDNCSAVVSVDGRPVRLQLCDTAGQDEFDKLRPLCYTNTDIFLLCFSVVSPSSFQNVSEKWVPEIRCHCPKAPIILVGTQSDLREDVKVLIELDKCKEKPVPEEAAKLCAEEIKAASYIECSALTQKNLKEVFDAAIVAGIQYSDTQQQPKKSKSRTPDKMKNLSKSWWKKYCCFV
Chain of pak1_human PAK1 (Q13153 whole entry): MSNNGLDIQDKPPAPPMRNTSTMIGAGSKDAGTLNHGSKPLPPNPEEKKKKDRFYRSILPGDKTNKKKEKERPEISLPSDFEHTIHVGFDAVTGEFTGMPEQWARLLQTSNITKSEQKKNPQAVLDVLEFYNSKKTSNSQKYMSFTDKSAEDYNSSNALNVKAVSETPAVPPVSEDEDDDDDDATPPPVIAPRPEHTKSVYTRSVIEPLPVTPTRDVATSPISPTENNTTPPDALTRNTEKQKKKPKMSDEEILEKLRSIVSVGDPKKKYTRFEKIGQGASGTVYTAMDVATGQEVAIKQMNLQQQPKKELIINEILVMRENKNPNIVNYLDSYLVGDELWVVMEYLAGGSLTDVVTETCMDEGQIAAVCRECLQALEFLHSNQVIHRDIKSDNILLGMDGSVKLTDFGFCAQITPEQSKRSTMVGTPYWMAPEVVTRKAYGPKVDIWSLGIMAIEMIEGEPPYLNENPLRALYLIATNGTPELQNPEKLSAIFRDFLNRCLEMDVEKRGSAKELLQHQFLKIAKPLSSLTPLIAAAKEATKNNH

Substance | effect of a mutation on the interaction (fak2_human PTK2B [1]) | effect of a mutation on the interaction (pak1_human PAK1) | effect of a mutation on the interaction (fak1_human PTK2) | effect of a mutation on the interaction (fak2_human PTK2B [2])
Rho-related GTP-binding protein RhoU (Homo sapiens), Q7L0Q8 F83G | disrupting interaction |  |  | 
Rho-related GTP-binding protein RhoU (Homo sapiens), Q7L0Q8 F86C | disrupting interaction | decreasing interaction |  | 
Rho-related GTP-binding protein RhoU (Homo sapiens), Q7L0Q8 P80G | disrupting interaction | decreasing interaction |  | 
Rho-related GTP-binding protein RhoU (Homo sapiens), Q7L0Q8 Q107L |  |  | decreasing interaction | 
Rho-related GTP-binding protein RhoU (Homo sapiens), Q7L0Q8 T63N |  |  | decreasing interaction | disrupting interaction
